Measured values: the DeepSol protein solubility set

assay: soluble on expression in E. coli; label from the status in PepcDB or PDB records

Sequence	soluble on expression in E. coli
MGSDKIHHHHHHEISDGVVRIGLLTDMSGAFSQFSGHGSVVAAQMAIDDCLAAECKGMKIELLSADHQNKTDIALAKAREWADVNKVDAYADMVNSAVALAMQSLAVQKKKAALFAGGPLRISNEDCQPEYAVQWMWDTYSQTAAAIKGLAKPKQGWYFITVDYAYGNAAVAEARKQLEAIGAHTVGESKHPLNSNDMSSQIIAAQQSKADVVAFANSGADSANAIKTASEFKLGAKKLQAAFFPTIYEIKGIGLAQAKGLRFPESFYWDIDDGTRRFSKRFMDIYKKGPPSLTHAGVYSSVYHYLKAVAATKSDDAQTVIRKMHELPIRDDVVRNPKLRPDGRMVHDYYYFRVKSPQESKGPWDLYALEKTLPGDEVFLPVAESQCRVFKGQAK	not soluble
MIAIIDYGMGNIRSVEQALKYIGAAYIVTSDKEEIFRSDGVILPGVGAFPKAMDILEEKDLVRVLQEIGRSRKPLLGICLGMQLLFEKSEELQDCNGLSLLPGVIRKLKVPYKIPHMGWNELKKEGEIALWNGVEDGSFVYYVHSYYADCPNEIVYGISDYGVKVPGFVAKGNIYGAQFHPEKSGDIGMQMLKNFKGVVETWKSSQLSI	soluble
MGSDKIHHHHHHMRDSTQLPVTRRMLPSLYQSICLILCSQNLSGINLSGISPSSISLGPSTLFRHTRLSQRLAKFQIPRPIKHQSQRFSIFALACFVAATLSGCANSLETCARTELKLTWAEPAELQATVTILSSDEFEGRKTQTQGAAKSRDYIKQQFESLNLQPWGADFIVPFEYQTFFTQETGANVVATAMATEPTNRWRIIVAHYDHLGMSGSKIYHGADDNASGVAAMLAIAKHWQQQFALQPNTLPKVNLMFVATDAEEPGLYGSIALVEQLKTRLPEATFELMINLDMVSHPGRPYGIYLEGSRNFTQFNQFKSLLNQQNRLCIKLTHPKPVGRSIQSTDWLRASDHYPFHKANIPWLYFGVPTHPQYHTPEDTVATIDITFLAAVTESAFELLQLNAEYLKN	not soluble
MSVKLRLPQSAYPIFDRIEEMAWARHYQQIVREEKETELADDLEKGLPQHLFESLCIDHLQRHGANKQAISHAFDDDVEFQERMAEHIRYMAETIAHHQVDIDLEDLEHHHHHH	not soluble
MGVPFIRFLNITFDRRGDELTGVLNFDDKLIGNPFLPAIHGGVTAAFLEVTAVITLSWAHLFERIESGDLAPEDILTDENMRFPKTIDFTIDYLRSGLPRDAYARAYISRAGRRYASVRVEAWQDHHDKLYAQGTGHFLMPLEHHHHHH	soluble
MGSDKIHHHHHHMLIFVMKPRSNPVTGGFHSDKFANWNTMPLETLPVISLAGEPDALSRELGESFRTFGFAMVRDHGIDPDLIARAWDLTAQFFALPEAEKRSYYLDGLAGARGYTPFGTEIAKGARLHDLKEFWHVGRDLPAGHPLSASMPPNVWPARPEGFRQTFETLYGEFDKVGARILSRIAVWLGLDENWFDPAIEDGNSVMRLLHYPPVPDAESGAIRAGAHEDINLITLLLGAEEAGLELLSRQGEWIGVSPPEGALVVNIGDMLQRLTNHVLPSTTHRVRNPEGERARFSRYSMPFFLHLRSDFPFVTLPQCISDENPDRYPVSITADDYLQERLREIGLRK	not soluble
MGSDKIHHHHHHMDAPALPARWKVSAPELIAETFSSRIWKVVRDDGSPAVVKALKPFDDVADELRGEHFLAWRRGEGAVRLLGRDGHSMLLEYAGETLLTQVLDEQGDNAATAIAAELMTKLFSPSQHPYPPELQPLTERYTSLFRKAATDRGAGHASIYVEAAAIAERLLDNPHDIRPLHGDLHHDNILHGPRGWLVIDPKGVLGNPGFDAANMFYNPLDRDDLCLDPERIAHMAEVFAKTLGESPAAILDHAIAYGCLSAAWHHEDDNAVEENRELSIAKAIRAMRANF	not soluble
MKGYIHVYTGNGKGKTTAALGLATRAACAGLKVFFGQFLKGRETSELKISEFLPNFEIVQYGTPEFIVGNPSEEQIKKAKSGLADAKERLVSEKYDVVVLDELCVAIHLGLFSKEEIEDLLNVKPENVELVITGRYAPEWLIEKADLVTEMKEVKHYYQKGVVARKGIEY	soluble
MRGSHHHHHHTDPALRASSNTFTLGTKSVNRLGYGAMQLAGPGVFGPPRDRHVAITVLREALALGVNHIDTSDFYGPHVTNQIIREALYPYSDDLTIVTKIGARRGEDASWLPAFSPAELQKAVHDNLRNLGLDVLDVVNLRVMMGDGHGPAEGSIEASLTVLAEMQQQGLVKHIGLSNVTPTQVAEARKIAEIVCVQNEYNIAHRADDAMIDALAHDGIAYVPFFPLGGFTPLQSSTLSDVAASLGATPMQVALAWLLQRSPNILLIPGTSSVAHLRENMAAEKLHLSEEVLSTLDGISREGLCGR	soluble
MATVLIVGRPNVGKSTLFNKLVKKKKAIVEDEEGVTRDPVQDTVEWYGKTFKLVDTCGVFDNPQDIISQKMKEVTLNMIREADLVLFVVDGKRGITKEDESLADFLRKSTVDTILVANKAENLREFEREVKPELYSLGFGEPIPVSAEHNINLDTMLETIIKKLEEKGLDLESKPEITDAIKVAIVGRPNVGKSTLFNAILNKERALVSPIPGTTRDPVDDEVFIDGRKYVFVDTAGLRRKSRVEPRTVEKYSNYRVVDSIEKADVVVIVLDATQGITRQDQRMAGLMERRGRASVVVFNKWDLVVHREKRYDEFTKLFREKLYFIDYSPLIFTSADKGWNIDRMIDAMNLAYASYTTKVPSSAINSALQKVLAFTNLPRGLKIFFGVQVDIKPPTFLFFVNSIEKVKNPQKIFLRKLIRDYVFPFEGSPIFLKFKRSR	soluble
MLITHLIDSLSDRAVITPLTPTSVIIYDKNELKVYVGFTNNRNSLEYTKEVVLLLSTEIPKKAEIREIIVSKNGDYVILEGPRSLFVVRIGAEILVAKPDRLPSECFCECYPLHDSLLLQNISLSVVKVRLLPEKCDEKTFVTAVLFSDNCIRFYNLQKKFDSLLLAVDFRNHLHQVHDENVANNTFGLQKALVSFDLIPPKPNTSHFSIISIDSDCDFYTSFVHFSCFKEGYAPRIHRIEPVDGLPCDPLDLRYIQTTNPRICSVFVLVSGGGVLSHLVVFPNEFGEFRFLVKDQLRLPSSNGDPRIVQNQIRSLKVSRYEIATSSSLFSVNIFPWFEALTSISPTSTLEKETRVSELVDAVIPSDELSNTTKWTGARALRAVSVQLTQSLATEEEELLPESENIMHLVILENKDGQPAHLFNISTFDNIWSTENKTSFGRDSVSQPPMKSTGSLEQQLAALKPLAACVISEKVSCEEAIDAAMKFFDAVDERLKKHCEISKLFVERCLAVSSSAQALDEKQQSVDQRLIEETNTVEELKIRMHETKERMEGARKGINVLFHRVDENVPLSDNEIRIFERLKEHQKMLSDMTKLVPKMTLDSNEIHRMANIVLKKRGTGEEQNRFAAVEKNATEIESLEARENKLNTGISELSI	not soluble
GPGSMFRAVYSNPAANVPASNCMTDGFPLLPPQRPHSSGSQLMRGCPLPWNDGRTLMYGVPAKNEASLQQVSYSRTLGQRWSSGSADNAAQCAAATHSTVCFASCASGANGSAGGSPVLLQPAMGVPAFVTDNQQLPSMVAQSSPTVSRLTSGMCSTSEGSATFGASTTSATSSTVGNCAATGTAATTNGSMAHTGTSPALPGFQMSVPLPTSAMTAVAAPPQQPQTCFWLSHTTGALTPIRKEDMMTISDTSASTNTHSYAMPPPPTMPSQPSSASATSVPTYLMAPQVSSFGGAMVQAFSELLSGSTAFSVPALPLPQPPRPPKTLNGLQYHLGELYEGFVKRYNPNRGFGFLTATTHVTVVNDGSNSDSATGTPIASLNNTTTAVPTTGEAETPKEYRTPVHLGDIFVHQSSMQMEGFRTLPVGGRVRFCIGYKDGQQTLQAVNVELLPQVLPPNVEMASSP	not soluble
MGSDKIHHHHHHMLQAQLKPANLVVTCNQTHSTMAQTDAPSTPAKPVIHAKQTAESGSSAQLRHLSRYLVRNLGMLNAAFGDLPLSPVQAHALFEIGKQPLTIKELACKLSIDKSNASRAIKHLIDKNLAQSQIHPRDSRCLVVQLTPAGKKLLLKLDTQQNQLFQEILAQLTPAQTSQIEEALMLYNQAVHNAKHQSGCHIRQATAQDDAAIAKVIRDVSAEYGLTADKGYSVADPTLDCLSQIYSQAGANYWIIELDGRILGGAGIAPLANNEGVCELQKMYFMPEIRGKGLATRVALMALDFARETGYQSCYLETTAALNEAVKLYEKLGFVHLSAPLGNTGHDACEMPMLLELNQ	not soluble
MSLTAERQERLLARVEDAFGVISVYEVDDYRFLEFGDAIEQSCVFTADPSWLEYDYTRAMLVGALCHESPESALFLGLGAGTLTQACMKFLPLEDIEAIELRPDVPRLAMDYLGLDDDPRLYVRIGDALELLPTAEKADLLFVDLYTDHGPGVGHLAWNFLENCQQHLNPGGWLVINQWATDDGRPLGAALLRGLYHRHYWELPVKEGNVILLVPADLEQSLDLDGLRARAEALAPRLGYSLDGLIREIRPATEGHHHHHH	soluble
SSTQYSILFKQEHAHEDAIWTAAWGRSEKDGSETIVTGSLDDLVKVWKWSDEKLELQWTLEGHQLGVVSVNISQNGAIAASSSLDAHIRLWDLETGKQIKSMDAGPVDAWTVAFSPDSKYIATGSHLGKVNIFGVESGKKEHSLDTRGKFILSIAYSPDGKYLASGAIDGIINIFDIATGKLLHTLEGHAMPIRSLTFSPDSQLLVTASDDGYIKIYDVQHANLAGTLSGHGSWVLSVAFSPDDTHFVSSSSDKSIKVWDTSSRSCVNTFFDHQDQVWSVKYNPTGSKIVSAGDDRAIHIYDCPM	soluble
MGCVSSKSTTVLSPQTSFNEASRTSFRALPGPSQRQLEVYDQCLIGAARWPDDSSKSNTPENRAYCQSMYNSIRSAGDEISRGGITSFEELWGRATEWRLSKLQRGEPLYSAFASERTSDTDAVTPLVKPYKSVLARVVDHEDAHDEIMQDNLFGDLNVKVYRQTAYLHGNVIPLNTFRVATDTEYLRDRVAHLRTELGAKALKQHLQRYNPDRIDHTNASYLPIIKDHLNDLYRQAISSDLSQAELISLIARTHWWAASAMPDQRGSAAKAEFAARAIASAHGIELPPFRNGNVSDIEAMLSGEEEFVEKYRSLLDSDCFGTGHHHHHH	soluble
GMTILSDVKALGQQIWLDNLSRSLVQSGELAQMLKQGVCGVTSNPAIFQKAFAGDALYADEVAALKRQNLSPKQRYETMAVADVRAACDVCLAEHESTGGKTGFVSLEVSPELAKDAQGTVEEARRLHAAIARKNAMIKVPATDAGIDALETLVSDGISVNLTLLFSRAQTLKAYAAYARGIAKRLAAGQSVAHIQVVASFFISRVDSALDATLPDRLKGKTAIALAKAAYQDWEQYFTAPEFAALEAQGANRVQLLWASTGVKNPAYPDTLYVDSLIGVHTVNTVPDATLKAFIDHGTAKATLTESADEARARLAEIAALGIDVETLAARLQEDGLKQFEEAFEKLLAPLV	soluble
MVSKIRTFGWVQNPGKFENLKRVVQVFDRNSKVHNEVKNIKIPTLVKESKIQKELVAIMNQHDLIYTYKELVGTGTSIRSEAPCDAIIQATIADQGNKKGYIDNWSSDGFLRWAHALGFIEYINKSDSFVITDVGLAYSKSADGSAIEKEILIEAISSYPPAIRILTLLEDGQHLTKFDLGKNLGFSGESGFTSLPEGILLDTLANAMPKDKGEIRNNWEGSSDKYARMIGGWLDKLGLVKQGKKEFIIPTLGKPDNKEFISHAFKITGEGLKVLRRAKGSTKFTRVPKRVYWEMLATNLTDKEYVRTRRALILEILIKAGSLKIEQIQDNLKKLGFDEVIETIENDIKGLINTGIFIEIKGRFYQLKDHILQFVIPNRLGKPDLVKSELEEKKSELRHKLKYVPHEYIELIEIARNSTQDRILEMKVMEFFMKVYGYRGKHLGGSRKPDGAIYTVGSPIDYGVIVDTKAYSGGYNLPIGQADEMQRYVEENQTRNKHINPNEWWKVYPSSVTEFKFLFVSGHFKGNYKAQLTRLNHITNCNGAVLSVEELLIGGEMIKAGTLTLEEVRRKFNNGEINF	soluble
